In the DeepSol protein solubility set:

Experiment: soluble on expression in E. coli; label from the status in PepcDB or PDB records

For “MHPKRTPGTCFPGRGRPAPPRISVTVPEEVSQQEDLLVARSSELGGNSNTAVALTFNHALTAVRFVCGNDMREGTVKQVRLKNVYSRGTYNMGTQTWSGLDTPASFSQALDKVTTGTADEALTSEAQTFMMLPQRFPEGAQIEVLFTDDTHTGHTLIADIKGSEWPMGKTVTYKISSSSLNWTYTLDVTALADFTYTGGTQQYCVTSYRQNAQGEKEAAEWTAQYAEDGTTWTDTKPVWLTAFTASGTGGEFAQPCDATVEAQTGISNDLHENALKAATAKGSETTPYNLSNNTGGNTVENTANCYVVNAPGYYSLPLVYGNAIKNSATNASAYTSTVTGTNILNPFINHAGNGITDPYISGNGCTPAKAELVWQDAMNLVTDIKYNADSNGGNISFKVDRSSIRQGNAVIAIKDVSDAILWSWHVWVTDEDINNVIEITNHQNVKYNFMPVNLGQCDGNTITYEERSCKVKFIAGDQSKEITIKQLANVIATGSNAPFYQWGRKDPLYPSNGMGNTTKIWYDKEGIPSTANPMKGTFSAGNDCIKNCILNPNLMHNRYNGDYTYYNLWSADNKTTSANDNPVNKTIYDPCPVGFKLPASNAFTGFTTTGESVSSSTQVNGTWSSSEKGWYFYTNSEKTQSIFFPALGYRSYSTMRPGSIGTQGCFWSAHPVAKGNNYYLRTSSVDVQPTYMVDRGFGYALRPCQD”, which “soluble on expression in E. coli” value is on record?
The value was “not soluble”.

For “MSLNQFTTDLVQALVQKENVTEIFRSHLENAVNTLLASELTAFLDYEKYDRIGFNTGNSRNGSYERTLHTEFGELHLVIPRDRNGDFKQQTVAPYKRSNDTLEAFVIHMFQKGVTTAEIAHLMERMYGHHYTPQTISNMTKVMSEQVEAFRDRTLCARYACVYLDATYIALKRDTVSKEAVYIAVGIREDGSKEVLGYTIAPNESAFVWKELLEDIKSRGVEEILLFISDGLKGISDSVFSIYPASSYQTCCVHLSRTIAHKVRVSDRAEICEDFKSVYRAESLEMGQQALHSFIEKWKSKYPKVTKPLLNNSYLFTFYSFPKSIWRSIYSTNLIESFNKQIKKYSKRKEQFPNEESLERFLVSQFDQYNQRFATRCHIGFDQARAELQMMFKTNEGHHHHHH”, which “soluble on expression in E. coli” value is on record?
The value was “soluble”.

With “MSLNLVSLRVITDDVARLVGFYERATGLRATWATEDFAELRTPSGTLAIGSTRTVPLFAPGSARPADNRSVIVEFLVDDVDAVHRNLTGFVDEFVREPTTMPWGNRALLFRDPDGNLVNFFTPVTEGHHHHHH” as the sequence, how does the “soluble on expression in E. coli” value read?
Its value is “not soluble”.

Which “soluble on expression in E. coli” value does the source give for “MDNILNYPTSTHVDRLVPKTAFYKHLEINTRLKMRFVEDVERIQWLYKLAPSTMNVDTGKTVHEIVMFLVTLKAEDMPDDVFLAIDRQMPRHVVFVLQYANRGRLLLNYKEWVDANKTRFNILKTFRTEWMPLAKVKLELAGSSLDNIYEAFAGQISGFGTTNAADTKQIMALQDELARKRRAAEALQKRVRNERQFAKQMELNSEARALKREIAKLEEVLKTLENN” here?
Its value is “not soluble”.

With “MLKVLVVDDEMLARDELKYLLERTKEVEIIGEADCVEDALEELMQSRPDIVFLDIQLSDDNGFEIANILKKMKNPPAIVFATAYDQYALQAFEVDALDYILKPFDEERIVQTLKKYKKQKQSQIETKHEIKGTDVTVEMHKLALPIEESIVLVNIEDIVYVGLVDGKVTVKTMRETYVTHDTLVILEKKLPQVSFMRVHRSFIANINHITEIQPWFNSTYNLIMKEGSKVPVSRTYAKELKKLLRI” as the sequence, how does the “soluble on expression in E. coli” value read?
Its value is “not soluble”.

For “SDEFVNLKETELRLGLPGTDNVCEAKERVSCCNNNNKRVLSTDTEKEIESSSRKTETSPPRKAQIVGWPPVRSYRKNNIQSKKNESEHEGQGIYVKVSMDGAPYLRKIDLSCYKGYSELLKALEVMFKFSVGEYFERDGYKGSDFVPTYEDKDGDWMLIGDVPWEMFICTCKRLRIMKGSEAKGLGCGV”, which “soluble on expression in E. coli” value is on record?
Its value is “soluble”.

With “MTTIPVTSIAAEPAVSCSTCAACCCQLEVMLITDTGVPERFIDTDDWGGEVMRRLDDGWCAALDRDSMRCSIYELRPLICREFELGEADCLSERRGIATAYRLEHHHHHH” as the sequence, how does the “soluble on expression in E. coli” value read?
The value was “not soluble”.

With “MSLRIIVVGGGKVGTALCRSLVAEKHDVVLIEKKENVLKRVTKQHDIMGIVGNGANYKILEQAEVKNCDIFIAITDRDEVNMISAVLAKKMGAKETVVRMRNPEYSNPYFKDKNFLGFSSVVNPELLAAQYIANTIEFPNATSVEHFANGRVMLMEFKILEGNKLCHTSMSQIRKKFGNIVICAIERDGKLIIPDGDATIQVKDKIFVTGNRIEMILFHNYVKNKVVKNLMVIGAGRIAYYLLNILKNTNTHVKLVELNQEQAEYFSQEFPNVPVVHGDGTAKNILLEESVTSFDAVATLTGVDEENIITSMFLESIGIPKNITKVNRTSLLEIIDDKQLSSIITPKRIAVDHVMHFVRGRVNAQDSNLEAMHHIANDRIETLQFEIKETSKLANRSLASLKLKQNILIAAIIRNNKTIFPTGEDVLTVGDRIVVITLLKNITRTSDMLAREGHHHHHH” as the sequence, how does the “soluble on expression in E. coli” value read?
Its value is “soluble”.
